The target in the data set is 15N-labeled AR DBD (human, UniProt P10275 558-648). Nature of the data set: NMR.
Chain of 15N-labeled AR DBD (P10275 558-648): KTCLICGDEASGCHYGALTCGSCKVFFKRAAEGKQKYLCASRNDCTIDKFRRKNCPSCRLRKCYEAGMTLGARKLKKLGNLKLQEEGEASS

B1: ADR3 DNA duplex (NMR) (dsDNA)
DNA 1: CCAGAACATCAAGAACAC
DNA 2: GTGTTCTTGATGTTCTGG
With B1, the binding result is given as “binds”.
